Experimental data reported in patent publication US6362163B1, “Parathyroid hormone-related peptide analogs” (The General Hospital Corporation, priority 1996, dated 2002).
Blank lines part the entries; values can stand above or below the molecule they belong to. Where no end group is shown, it is not given here.

Assays:
PTH-2 receptor = molecular target: T1, PTH-2 receptor (Homo sapiens, UniProt P49190); assay: Competition radioligand binding, COS-7 cells transfected with human PTH-2 receptor; details: competition with radioligand, COS-7 cells
T1 construct: expressed in transfected cells; host or cells: COS-7 cells, transient transfection, vector pcDNAI/Amp
Protocol: The cDNAs encoding the human PTH/PTHrP receptor (Schipani, E. et al., Endocrinology 132:2157-2165 (1993)) and the human PTH-2 receptor (Usdin, T. et al., J. Biol. Chem. 270:15455-15458 (1995)) were carried on the expression vectors pcDNA-1 and pcDNAI/Amp (InVitrogen, San Diego, Calif.), respectively. COS-7 cells were cultured and transfected as described previously (Lee, C. et al., Mol. Endocrinol. 9:1269-1278 (1995)). Cells were transfected in 24-well plates using plasmid DNA (200 ng/well) purified by cesium chloride/ethidium bromide gradient centrifugation. Ligand binding and cAMP accumulation assays were performed three days after transfection, by which time the cell density reached 500,000±100,000 cells/well.
Binding reactions were performed as described previously. Id. Each well (final volume: […]) contained 26 fmole of ^125I-[Nle^8,21,Tyr^34]rPTH(1-34)NH2 (100,000 CPM) and various amounts (0.4-300 pmole) of an unlabeled competitor ligand, both diluted in binding buffer (50 mM Tris-HCl, pH 7.7, 100 mM NaCl, 5 mM KCl, 2 mM CaCl, 5% heat-inactivated horse serum, 0.5% heat-inactivated fetal bovine serum). Incubations were at room temperature for 2 hours, except for experiments involving Scatchard analysis, which were performed at 4° C. for 6 hours. At the end of the binding reaction, the cells were rinsed 3 times with 0.5 ml of binding buffer, lysed with 0.5 ml of 5M NaOH, and the entire lysate was counted. Nonspecific binding of tracer (NSB), determined in wells containing 1 μM of [NleTyr^8,21,Tyr^34]rPTH-(1-34)NH2, was ˜1% of total counts added. Maximum specific binding (B0) was calculated as the total radioactivity bound to cells in the absence of unlabeled PTH ligand, minus NSB. […] For Scatchard analyses, homologous competition binding studies were performed that used ^125I-[-NleTyr^8,21,Tyr^34]rPTH-(1-34)NH2 (26 fmole/well) and varying amounts (1.2-300 pmol) of the same unlabeled ligand. Estimates of the number of receptors/cell derived from these studies assumed a single class of binding sites and a transfection efficiency of 20% (Abou-Samra, A. B. et al., Proc. Natl. Acad. Sci (USA) 89:2732-2736 (1992)).

human PTH/PTHrP receptor = molecular target: T2, human PTH/PTHrP receptor (human, UniProt Q03431 27-593); assay: radioligand competition (tracer 125I-[Nle8,21,Tyr34]rPTH-(1-34)NH2) on transfected COS-7 cells, RT 2 h
T2 construct: whole, on cells; Transiently expressed on COS-7 cells
T2 sequence (looked up): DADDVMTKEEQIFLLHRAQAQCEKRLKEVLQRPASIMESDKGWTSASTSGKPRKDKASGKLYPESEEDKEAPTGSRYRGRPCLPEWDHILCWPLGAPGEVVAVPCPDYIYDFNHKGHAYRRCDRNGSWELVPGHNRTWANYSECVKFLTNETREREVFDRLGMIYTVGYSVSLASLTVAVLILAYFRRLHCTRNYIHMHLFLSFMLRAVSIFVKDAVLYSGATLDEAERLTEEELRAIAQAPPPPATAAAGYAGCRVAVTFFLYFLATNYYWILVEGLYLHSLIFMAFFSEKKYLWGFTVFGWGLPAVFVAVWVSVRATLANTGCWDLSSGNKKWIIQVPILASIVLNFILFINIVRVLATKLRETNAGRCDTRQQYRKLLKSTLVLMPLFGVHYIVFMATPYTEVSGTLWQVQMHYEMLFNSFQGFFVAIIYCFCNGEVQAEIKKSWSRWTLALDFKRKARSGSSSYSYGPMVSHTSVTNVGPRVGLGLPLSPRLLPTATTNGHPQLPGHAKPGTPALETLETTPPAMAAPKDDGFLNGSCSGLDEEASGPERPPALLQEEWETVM
Protocol: (§1) Assays were performed for 2 hours at room temperature. Data are the mean (± s.e.m.) of IC$50$ values obtained from the number of experiments indicated (n).
(§2) Binding reactions were performed as described previously. Id. […] Incubations were at room temperature for 2 hours, except for experiments involving Scatchard analysis, which were performed at 4° C. for 6 hours. At the end of the binding reaction, the cells were rinsed 3 times with 0.5 ml of binding buffer, lysed with 0.5 ml of 5M NaOH, and the entire lysate was counted. […] Estimates of the number of receptors/cell derived from these studies assumed a single class of binding sites and a transfection efficiency of 20% (Abou-Samra, A. B. et al., *Proc. Natl. Acad. Sci* (*USA*) 89:2732–2736 (1992)).

human PTH-2 receptor [1] = molecular target: T3, human PTH-2 receptor (human, UniProt P49190 25-550); assay: cell-based or functional assay
human PTH-2 receptor [2] = molecular target: T3, human PTH-2 receptor; assay: radioligand competition (tracer 125I-[Nle8,21,Tyr34]rPTH-(1-34)NH2) on transfected COS-7 cells, RT 2 h
Protocol: as §1, §2

T3 sequence (P49190 25-550): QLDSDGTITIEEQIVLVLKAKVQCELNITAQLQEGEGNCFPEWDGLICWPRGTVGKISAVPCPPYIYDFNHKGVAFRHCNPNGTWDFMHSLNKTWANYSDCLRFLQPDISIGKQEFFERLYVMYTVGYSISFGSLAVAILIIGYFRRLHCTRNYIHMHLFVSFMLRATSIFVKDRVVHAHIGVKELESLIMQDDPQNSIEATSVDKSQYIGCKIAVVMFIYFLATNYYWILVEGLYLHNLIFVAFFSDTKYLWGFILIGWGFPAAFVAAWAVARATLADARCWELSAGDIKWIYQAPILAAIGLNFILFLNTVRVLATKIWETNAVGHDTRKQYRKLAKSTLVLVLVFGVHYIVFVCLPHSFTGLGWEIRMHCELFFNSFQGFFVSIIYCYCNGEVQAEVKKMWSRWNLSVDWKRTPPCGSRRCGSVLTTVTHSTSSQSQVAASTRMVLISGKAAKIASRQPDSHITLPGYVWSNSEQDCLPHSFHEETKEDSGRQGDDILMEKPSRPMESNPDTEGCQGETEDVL
T1 sequence (P49190 25-550): as above

Molecule: [Y36]hPTHrP-(15-36)NH2
Binding in words, PTH-2 receptor (PTH-2 receptor): competed weakly

B1: Hybrid-3 hPTHrP-(1-23)/[Y34]hPTH-(24-34)NH2 (peptide)
peptide: AVSEHQLLHDKGKSIQDLRRRFFLRKKLQDVHNY-NH2
notes: Synthetic PTH/PTHrP hybrid ligand; also called PTHrP-(1-23)/PTH-(24-34)
IC50 (human PTH/PTHrP receptor): 1000 nM | cAMP accumulation EC50 (human PTH-2 receptor [1]): > 1000 nM | cAMP accumulation Maximum (human PTH-2 receptor [1]): 11 pmoles/well

B2: Hybrid-5 hPTHrP-(1-18)/[Y34]hPTH-(19-34)NH2 (peptide)
peptide: AVSEHQLLHDKGKSIQDLERVEWLRKKLQDVHNY-NH2
modifications: also: radioiodinated in direct binding test
notes: Synthetic PTH/PTHrP hybrid ligand; also called radioiodinated hybrid-5 peptide
IC50 (human PTH-2 receptor [2]): 500 nM | cAMP accumulation EC50 (human PTH-2 receptor [1]): > 1000 nM | cAMP accumulation Maximum (human PTH-2 receptor [1]): 6.2 pmoles/well

Molecule: IQDLRRRFWLHHLIAEIHTAEY-NH2 [[W23, Y36]hPTHrP-(15-36)NH2]
IC50 (human PTH/PTHrP receptor): > 10000 nM

Now from value to molecule:

IC50 (human PTH/PTHrP receptor): > 10000 nM
Molecule: IQDLRRREWLHHLIAEIHTAEY-NH2 [[E22, W23, Y36]hPTHrP-(15-36)NH2]

IC50 (human PTH/PTHrP receptor): > 10000 nM
Molecule: IQDLRRRFFLHHLIAEIHTAEY-NH2 [[Y36]hPTHrP-(15-36)NH2]

IC50 (human PTH-2 receptor [2]): 10 nM | cAMP accumulation EC50 (human PTH-2 receptor [1]): 0.5 nM | cAMP accumulation Maximum (human PTH-2 receptor [1]): 65 pmoles/well
B3: [I5, W23, Y36]hPTHrP-(1-36)NH2 (peptide)
peptide: AVSEIQLLHDKGKSIQDLRRRFWLHHLIAEIHTAEY-NH2
notes: also called [Ile^5, Trp^23]PTHrP-(1-36); [Ile^5,Trp^32]PTHrP-(1-36) [sic]
